How the values were obtained:
GST-TvCyP2 = molecular target: T1, GST-TvCyP2 (Trichomonas vaginalis, UniProt A2DLL4 1-186); experiment: pull-down; GST pull-down: 30 picomoles of GST or GST-fusion protein on 20 μl glutathione beads with 35 nM His-tagged protein in 1 ml TEN200 (1 mM EDTA, 200 mM NaCl, 20 mM Tris-HCl pH 7.4), 4 °C overnight; washes with 0.1% TritonX-100; anti-6xHis Western blot; in Fig. 3D also with DMSO or 5 μM cyclosporine A (binding greatly diminished); settings: both partners purified
T1 construct: 186 aa; source: E. coli DH5α, purified (glutathione-conjugated beads)

GST-TvCyP2(R75A) = molecular target: T2, GST-TvCyP2(R75A) (Trichomonas vaginalis, UniProt A2DLL4 1-186, R75A); experiment: as above; settings: both partners purified
T2 construct: source: E. coli DH5α, purified (glutathione-conjugated beads)

B1: His-TvCyP1 (enzyme)
chain: not shown
notes: TvCyP1 cyclophilin of Trichomonas vaginalis; ~19-kDa band; source: purified
B1: binds (GST-TvCyP2); binds (GST-TvCyP2(R75A)).

— PMC6985235, “Endomembrane Protein Trafficking Regulated by a TvCyP2 Cyclophilin in the Protozoan Parasite, Trichomonas vaginalis” (Scientific Reports, 2020)
